# Measurements as given in patent US20140057317A1 (Harvard, published 2014).
# Numbering of substitutions follows the chain as printed. Numbers in names are those of the source.
# B1: Sortase 4S.4 (protein)
# chain: QAKPQIPKDKSKVAGYIEIPDADIKELVYPGPATREQLSRGVSFTEENESLDDQNISITGHTSIGRPSYQFTNLRAAKKGSMVYFKVGNETRKYKMTSIRNVKPTAVEVLDEQEGKDEQLTLITCDDYNEETGVWETRKIFVATEVK
# B2: optimized variant 4S.12.2 (protein)
# chain: B1 chain with L27P, S68N
# B3: wild type S. aureus sortase A (enzyme)
# chain: MQAKPQIPKDKSKVAGYIEIPDADIKEPVYPGPATPEQLNRGVSFAEENESLDDQNISIAGHTFIDRPNYQFTNLKAAKKGSMVYFKVGNETRKYKMTSIRDVKPTDVEVLDEQKGKDKQLTLITCDDYNEKTGVWEKRKIFVATEVKLEHHHHHH
# B4: srtA D165A (protein)
# chain: B3 chain with D107A
# B5: P94S/D160N/D165A/K196T sortase A (protein)
# chain: B3 chain with P36S, D102N, D107A, K138T
# B6: P94S/D160N/D165A sortase A (protein)
# chain: B3 chain with P36S, D102N, D107A
# B7: D160N/K190E/K196T (clone 4.2) (protein)
# chain: B3 chain with D102N, K132E, K138T
# B8: P94S/D160N/K196T srtA (enzyme)
# chain: B3 chain with P36S, D102N, K138T
# B9: P94S/D165A (clone 4.3) (protein)
# chain: B3 chain with P36S, D107A
# B10: srtA K196T (protein)
# chain: B3 chain with K138T
# B11: P94R/D160N/D165A/K190E/K196T srtA (protein)
# chain: B3 chain with P36R, D102N, D107A, K132E, K138T
# B12: srtA P94S (protein)
# chain: B3 chain with P36S
# B13: srtA D160N (protein)
# chain: B3 chain with D102N
# Assays:
# [1] = target: LPESG (SEQ ID NO: 38) substrate
# [2] = target: T1, LPETG (SEQ ID NO: 32) substrate
# T1 chain: LPETG
# Abz-LPETGK(Dnp)-CONH2 = target: T2, Abz-LPETGK(Dnp)-CONH2
# T2 chain: LPETGK
# [3] = target: T3, human CD154 tagged with the LPETG sequence at its C terminus (human, UniProt P29965 1-261); assay: cell-based or functional assay
# T3 sequence: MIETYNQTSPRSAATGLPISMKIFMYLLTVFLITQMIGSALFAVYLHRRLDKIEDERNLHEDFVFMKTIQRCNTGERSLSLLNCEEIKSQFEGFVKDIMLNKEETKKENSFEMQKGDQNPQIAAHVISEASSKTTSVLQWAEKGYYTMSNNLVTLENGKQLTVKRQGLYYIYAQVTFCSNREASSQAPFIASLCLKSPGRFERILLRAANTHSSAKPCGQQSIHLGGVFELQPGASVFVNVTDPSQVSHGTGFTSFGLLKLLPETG
# Gly-Gly-Gly-COOH (GGG) = target: T4, Gly-Gly-Gly-COOH (GGG)
# T4 chain: GGG
binder,measurement,setting,value
B1,activity against LPESG,[1],activity against LPESG (SEQ ID NO: 38) comparable to the starting type pentamutant
same,"altered substrate specificity, LPESG against LPETG, as determined by Kcat/Km (HPLC-based substrate cleavage assay)",[1],"remarkably altered substrate specificity (>4000-fold, as determined by Kcat/Km)"
same,activity against LPETG,[2],completely abrogated activity against LPETG (SEQ ID NO: 32)
B2,activity against LPESG,[1],activity against LPESG (SEQ ID NO: 38) comparable to the starting type pentamutant
same,activity against LPETG,[2],completely abrogated activity against LPETG (SEQ ID NO: 32)
B3,kcat/Km LPETG,Abz-LPETGK(Dnp)-CONH2,200 M⁻¹ s⁻¹
same,"fluorescence of live HeLa cells labeled with GGGYK-biotin over background without enzyme, flow cytometry",[3],≤ 2.8 fold
B4,kcat/Km LPETG,Abz-LPETGK(Dnp)-CONH2,700 M⁻¹ s⁻¹
B5,fold decrease in KM LPETG compared to wild type,Abz-LPETGK(Dnp)-CONH2,The 50-fold decrease in KM LPETG of the tetramutant compared to wild type
same,fold improved LPETG recognition compared to wild type,Abz-LPETGK(Dnp)-CONH2,45-fold improved LPETG (SEQ ID NO: 32) recognition
same,fold improvement in kcat/Km LPETG compared to wild type,Abz-LPETGK(Dnp)-CONH2,a 140-fold improvement in its ability to convert LPETG (SEQ ID NO: 32) (kcat/Km LPETG)
same,kcat/Km LPETG,Abz-LPETGK(Dnp)-CONH2,28000 ± 7000 M⁻¹ s⁻¹
same,fold increase in Km GGG compared to wild type,Gly-Gly-Gly-COOH (GGG),a 30-fold increase in Km GGG for the sortase A tetramutant
B6,fold change in KM LPETG compared to the tetramutant,Abz-LPETGK(Dnp)-CONH2,KM LPETG were not altered by more than a factor of 3-fold
same,kcat/Km LPETG,Abz-LPETGK(Dnp)-CONH2,7500 ± 300 M⁻¹ s⁻¹
same,fold improvement in Km GGG compared to the tetramutant,Gly-Gly-Gly-COOH (GGG),the Km GGG of this mutant improved by 2.7-fold
B7,fold enhancement in catalytic efficiency compared to wild type,Abz-LPETGK(Dnp)-CONH2,an approximately 15-fold enhancement in catalytic efficiency at using the LPETG (SEQ ID NO: 32) substrate
same,fold reduction in Km LPETG compared to wild type,Abz-LPETGK(Dnp)-CONH2,a 5-7-fold reduction in Km LPETG
same,kcat/Km LPETG,Abz-LPETGK(Dnp)-CONH2,2400 ± 700 M⁻¹ s⁻¹
B8,fold increase in KM LPETG compared to the tetramutant,Abz-LPETGK(Dnp)-CONH2,3 fold
same,kcat/Km LPETG,Abz-LPETGK(Dnp)-CONH2,8600 ± 1500 M⁻¹ s⁻¹
same,fold improvement in Km GGG compared to the tetramutant,Gly-Gly-Gly-COOH (GGG),a 2.6-fold improvement in Km GGG
same,"median fluorescence (streptavidin-AlexaFluor594) of live HeLa cells labeled with GGGYK-biotin, flow cytometry",[3],≥ 30 fold
B9,fold enhancement in catalytic efficiency compared to wild type,Abz-LPETGK(Dnp)-CONH2,an approximately 15-fold enhancement in catalytic efficiency at using the LPETG (SEQ ID NO: 32) substrate
same,fold reduction in Km LPETG compared to wild type,Abz-LPETGK(Dnp)-CONH2,a 5-7-fold reduction in Km LPETG
same,kcat/Km LPETG,Abz-LPETGK(Dnp)-CONH2,2600 ± 100 M⁻¹ s⁻¹
B10,kcat/Km LPETG,Abz-LPETGK(Dnp)-CONH2,400 M⁻¹ s⁻¹
B11,"Km LPETG (fit of the one-hour time course, FIG. 16)",Abz-LPETGK(Dnp)-CONH2,Km LPETG=245±5 µM
same,fold change in KM LPETG compared to the tetramutant,Abz-LPETGK(Dnp)-CONH2,the kcat and KM LPETG were not altered by more than a factor of 1.3-fold
same,fold higher kcat/KM LPETG compared with wild type srtA,Abz-LPETGK(Dnp)-CONH2,a 120-fold higher kcat/KM LPETG
same,kcat/Km LPETG,Abz-LPETGK(Dnp)-CONH2,23000 ± 3000 M⁻¹ s⁻¹
same,fold higher Km GGG compared with wild type srtA,Gly-Gly-Gly-COOH (GGG),a 20-fold higher Km GGG
same,fold improvement in Km GGG compared to the tetramutant,Gly-Gly-Gly-COOH (GGG),the Km GGG of this mutant improved by 1.8-fold
B12,kcat/Km LPETG,Abz-LPETGK(Dnp)-CONH2,600 M⁻¹ s⁻¹
B13,kcat/Km LPETG,Abz-LPETGK(Dnp)-CONH2,600 M⁻¹ s⁻¹
